Values quoted from earlier work, collected in PMC7905041.

Biological target: CD40 ECD (Homo sapiens) (UniProt P25942)
Test: SPR

Substance: CD40 CRD1/PLAD (from UniProt P25942)
- Kd: 600 nM
